A short description of this series: yeast display, Sf9 membrane polyspecificity reagent, FACS + sequencing; frameworks hold sequencing errors. Put shortly:
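A nanobody's polyreactivity label depends on the gate it was sorted from. Yeast display cells were stained with 10% biotinylated, detergent-solubilized Sf9 membrane reagent for 1 hour at 4 °C, enriched on streptavidin microbeads and sorted by FACS. The low and high (top ~1%) gates were set on anti-HA fluorescence for expression and streptavidin fluorescence for reagent binding.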
Regarding “QVQLVESGGGLVQAGGSLRLSCAASGSTFYTYAMGWYRQAPGKERELVAAISYRGGSTYYADSVKGRFTISRDNAKNTVYLQMNSLKPEDTSVYYCKVDGVVVGTKRGGYDYWGQGTQVTVSS”, the “polyreactivity (PSR sort gate)” value is “low polyreactivity”.
To “QVQLVESGGGLVQAGGSLRLSCAASGSTFYTYAMGWYRQAPGKERELVAAITFSGDSKYYADSVKGRFTISRDNAKNTVYLQMNSLKPEDTAVYYCAALQKRYYRSWVGYDYWGQGTQVTVSS” belongs “high polyreactivity”.
Then “QVQLVESGGGLVQAGGSLRLSCAASGSTFYTYAMGWYRQAPGKERELVARIRWSVGSTYYADSVKGRFTISRDNAKNTVYLQMNSLKPEDTAVYYCAADYYKRYKYLYDYWGQGTQVTVSS”, with “high polyreactivity”; and “QVQLVESGGGLVQAGGSLRLSCAASGSTFYTYDMGWYRQAPGKERELVAAISRRDGITYYADSVKGRFTISRDYATNTVYLQMNSLNPEDSAVYYCAAEDAYRYYDFDYWGQGTQVTVSS”, with “low polyreactivity”; and “QVQLVESGGGLVQAGGSLRLSCAASGSTFYTYPMGWYRQAPGKERELVAAISYRGGSTYYADSVKGRFTISRDTAKNTVYLQMNSMKPEDSAVYYCNVVGVVVGTKRGGYDYWGQGTHVTVSS”, with “low polyreactivity”.
As for “QVQLVESGGGLVQAGGSLRLSCAASGSTFYVNAMGWYRQAPGKERELVAAITSGGSTKYADSVKGRYTISCDNAKNTVYLQMNSLKPEDTAVDDCAAPRGRALSKVRYDDEYWGQGTQVTVSS”, the “polyreactivity (PSR sort gate)” value is “high polyreactivity”.
As for “QVQLVESGGGLVQAGGSLRLSCAASGSTFYVNAMGWYRQTPGKEREFVAAITWNSGSTYYADSVKGRFTISRDNEKNTVYLQMNSLKPEDTAVYYCAAVLSVRVYGYDYWGQGTQVTVSS”, the “polyreactivity (PSR sort gate)” value was “low polyreactivity”.
As for “QVQLVESGGGLVQAGGSLRLSCAASGSTFYVNAMGWYSQAPGKEREFVAAITWNSGSTYYADSVKGRFTISRDNAKNTVYLQMNSLKPEDTAVYYCAAVLSVRVYGYDYWGQGTQVTVSS”, the “polyreactivity (PSR sort gate)” value is recorded as “low polyreactivity”.
To “QVQLVESGGGLVQAGGSLRLSCAASGSTFYVNVMGWYRQAPGKERELVAGITIRDGSTYYADSVKGRFTISRDNAKNTVYLQMNSLKPEDTAVYYCARAGDGEYKRDYWGQGTQVTVSS” belongs “low polyreactivity”.
Consider “QVQLVESGGGLVQAGGSLRLSCAASGSTFYVYAMGWYRPAPGKERELVATISSSGAITYYADSVKGRFTISGDNAKNTVYLQMNSLKPEDTAVYYCARTGSLLSQVWYNYWGQGTQVTVSS”, for which the “polyreactivity (PSR sort gate)” value was “low polyreactivity”.
For “QVQLVESGGGLVQAGGSLRLSCAASGSTFYVYAMGWYRQAPGKERELVAAISKRGGTTYYADSVKGRFTISRDNAKNTVYLQMNSLKPEDTAVYYCATVSSSRDHDYWGQGTQVTVSS”, the “polyreactivity (PSR sort gate)” value is “high polyreactivity”.
As to “QVQLVESGGGLVQAGGSLRLSCAASGSTFYVYAMGWYRQAPGKERELVAAITVRGGSTYYADSVKGRFTISRDNAKKTVYLQMNSLKPEDTAVYYCNAEGTYGYWRSYNYWGQGTQVTVSS”, the “polyreactivity (PSR sort gate)” value is listed as “high polyreactivity”.
For “QVQLVESGGGLVQAGGSLRLSCAASGSTFYVYAMGWYRQAPGKERELVAGITDSGGSTYADSVKGRFTISRDNAKNTVYLQMNSLKPEVTAVYYCAADGETLTPRILGESEGDYWGQGTQVTVSS”, the “polyreactivity (PSR sort gate)” value is recorded as “low polyreactivity”.
Then “QVQLVESGGGLVQAGGSLRLSCAASGSTFYVYVMGWYRQAPGKERELVAVIDWRGGSTYYADSVKGRFTISRDNAKNTVYLQMNSLKPEDTAVYYCNKDAQFYYKLPYYKERDWGQGTQVTVSS”, with “low polyreactivity”; and “QVQLVESGGGLVQAGGSLRLSCAASGSTFYWYAMGWYRQAPGKERELVAAITSTGGSTYADSVKGRFTISRDNAKNTVYFQMNSLKPEDTAVYYWNVDTSSPSRRDYDYWGQGTQVTVSS”, with “low polyreactivity”; and “QVQLVESGGGLVQAGGSLRLSCAASGSTFYWYAMGWYRQAPGKERQLVAAITRNAGSTYYADTVKGRFTISRDNAKNTVYVQMNSLKPEDTAVSYCAADGARSAFLLAYYYWGQGTQVTGSS”, with “low polyreactivity”.
“QVQLVESGGGLVQAGGSLRLSCAASGSTFYYHGRGWSRQAPGKERELVAVISISGGSTYYADSVKGSFTISRDNAKNTVDLQMNSLKPEDTAVYYCATSYVGRSAYRSYGARGGYWGQGTQVTVSS”: the “polyreactivity (PSR sort gate)” value is on record as “low polyreactivity”.
Regarding “QVQLVESGGGLVQAGGSLRLSCAASGSTFYYNAMGCYRQAPGKERELVAAISSDGSTNYADSVKGRFTISRDNAKNTVYLQMNSLKPEDTAVYYCAAENIVYVRSNWYWGYDYWGQGTQVTVSS”, the “polyreactivity (PSR sort gate)” value is reported as “low polyreactivity”.
Then “QVQLVESGGGLVQAGGSLRLSCAASGSTFYYNAMGWYRQAPGKEREFVASISWRGGRTYYADSVKGRFTISRDNAKNTVYLQMNSLKPEDTAVYYCAKGYLALGQPDDYWGQGTQVTVSS”, with “high polyreactivity”.
For the sequence “QVQLVESGGGLVQAGGSLRLSCAASGSTFYYNAMGWYRQAPGKERELVAAISKRGGTTSYADSVKGRFTISRDNAKNTVFLQMNSLKPEDTAVYYCAAQTYLRQFYRYDWGQGTQVTVSS”, the “polyreactivity (PSR sort gate)” value was “high polyreactivity”.
To “QVQLVESGGGLVQAGGSLRLSCAASGSTFYYNAMGWYRQAPGKERELVARISRSGGSTYADSVKGRFTISRDNAKNTVYLQMNSLIPEDTAVYYCNADAYGTPEFTSYAVRYDYWGQGTQVTVSS” belongs “low polyreactivity”; to “QVQLVESGGGLVQAGGSLRLSCAASGSTFYYNAMGWYRQAPGKERELVASISRSGGSTYADSVKGRFTISRDNAKNTVYLQMNSLKPVDTAVYYCNADAYGTPEFTSYAVRYDYWGQGTQVTVSS”, “low polyreactivity”; to “QVQLVESGGGLVQAGGSLRLSCAASGSTFYYNSMGWYRQAPGKERELVARISRSGGSTYADSVKGRFTISRDNAKNTVYLQMNSLKPEDTAVYYCAKDYAPSATKLHYWGQGTQVTVSS”, “low polyreactivity”.
Consider “QVQLVESGGGLVQAGGSLRLSCAASGSTFYYNVMGWYRQAPGKERELVAAISNAGTTNYADSVKGRFTISRDNAKNTVYLQMNSLKPEDTAVYYCNAEFIGPEGYWWYIEYYYWGQGTQVTVSS”, for which the “polyreactivity (PSR sort gate)” value is “low polyreactivity”.
With “QVQLVESGGGLVQAGGSLRLSCAASGSTFYYYAMGGYRQAPGKERELVAAISISDNSTYYADSVKGRFTSSRDNAKNTVYLQMNSLKPEDTAVYYCAAYGWYAHDDSTYDYWGQGTQVTVSS”, the “polyreactivity (PSR sort gate)” value was “low polyreactivity”.
Turning to “QVQLVESGGGLVQAGGSLRLSCAASGSTFYYYAMGWSRPAPGKERELVAAISTRGGSTYYADSVKGRFTISRDNAKNTVYLQMNSLKPEDTAVYYCAKKYGYFGLHGYWGQGTQVTVSS”, the “polyreactivity (PSR sort gate)” value is “high polyreactivity”.
To “QVQLVESGGGLVQAGGSLRLSCAASGSTFYYYAMGWSRQAPGKERELVAAITRGGSTYYADSVKGRFTISRDNAKNTVYLQMNSLRPEDTAVYYCAAKSAYHGLVGGYYYWGQGTQVTVSS” belongs “high polyreactivity”; to “QVQLVESGGGLVQAGGSLRLSCAASGSTFYYYAMGWYRQAPGKEREFVAAITWSGGSTYYADSVKGRFTISRDNAKNTVYLQMNSLKQEDTGVYYCAKDQRYYYYGGGDYWGQGTQLTVSS”, “low polyreactivity”; to “QVQLVESGGGLVQAGGSLRLSCAASGSTFYYYAMGWYRQAPGKERELVAAISKSGGSTYYADSVKGRFTISRDNAKNTVYLQMNSLKPEDTAVYYCAARGRYISDYWGQGTQVTVSS”, “high polyreactivity”.
Take “QVQLVESGGGLVQAGGSLRLSCAASGSTFYYYAMGWYRQAPGKERELVAAITYSGGGTYYADSVKGRFTISRDNAKNTVYLQMNSLKPEDTAVYYCAKTIAVNTWYYYWGQGTQVTVSS”: the “polyreactivity (PSR sort gate)” value is recorded as “low polyreactivity”.
In the case of “QVQLVESGGGLVQAGGSLRLSCAASGSTFYYYAMGWYRQAPGKERELVASISFSGGSTYYADSVKGRFTISRDNAKNTVYLQMNSLKPEDTAVYYCGYYYWGQGTQVTVSS”, the “polyreactivity (PSR sort gate)” value is on record as “low polyreactivity”.
For the sequence “QVQLVESGGGLVQAGGSLRLSCAASGSTFYYYAMGWYRQAPGKERELVASISSAGNTNYADSVKGRFTISRDNAKNTVYLQMNSLKPEDTAVYYCAARYSGHPRYYYYWGQGTQVTVSS”, the “polyreactivity (PSR sort gate)” value was “low polyreactivity”.
For the sequence “QVQLVESGGGLVQAGGSLRLSCAASGSTFYYYAMGWYRQAPGKERELVATISSGSSTNYADSVKGRFTISRDNAKNTVYLQMNSLIPEDTAVYYCAADRWYINLYIDATISYDYWGQGTQVTVSS”, the “polyreactivity (PSR sort gate)” value is on record as “low polyreactivity”.
Consider “QVQLVESGGGLVQAGGSLRLSCAASGSTFYYYARGWYRQAPGKERELVAAISTSDGSTYYADSVKGRFTISRDNAKNTVYLQMNSLKPEDTAVYYCAADSYERFASYYYWGQGTQVTVSS”, for which the “polyreactivity (PSR sort gate)” value is on record as “low polyreactivity”.
Then “QVQLVESGGGLVQAGGSLRLSCAASGSTFYYYTMGWYRQAPGKERELVAISWDGDSTYSADSVKGRFTISRDNAKNTVYLQMNSLKPEDTAVYYCAAADYYLPDDVSDYVDANFDYWGQGTQVTVSS”, with “low polyreactivity”.
Take “QVQLVESGGGLVQAGGSLRLSCAASGSTGVNTMGWYRQAPGKERELVAAIRATGGSTYYADSVKGRFTISRDNAKNTVYLQMNSLKPEDTAVYYCAARYYRSQYWYDDSWGQGTQVTVSS”: the “polyreactivity (PSR sort gate)” value is “high polyreactivity”.
For “QVQLVESGGGLVQAGGSLRLSCAASGSTIAYYTMGWYRQAPGKERELVAAISASGGSTYYADSVKGRFTISRDNAKNTFYIQMNSLKPEDTAVYYCNAESYLTGWWVDYWGQGTQVTVSS”, the “polyreactivity (PSR sort gate)” value was “low polyreactivity”.
Consider “QVQLVESGGGLVQAGGSLRLSCAASGSTIDGNAMGWYRQAPGKERELVAAITSGGSTNYADSVKGRFTISRDNAKNTVYLQMNSLKPEDTAVYYCAADTVSFSILYDYWGQGTQVTVSS”, for which the “polyreactivity (PSR sort gate)” value is reported as “low polyreactivity”.
Regarding “QVQLVESGGGLVQAGGSLRLSCAASGSTIDKYAMGWYRQAPGKERELVAAIRKSGGRTYYADSVKGRFTISRDNAKHTVYLQMYSLKQEDTAVYYCAAVLPNYYSVRYGYWGQGTQVSVSS”, the “polyreactivity (PSR sort gate)” value is listed as “high polyreactivity”.
For “QVQLVESGGGLVQAGGSLRLSCAASGSTIDYYAMGWYRQARGKERELVAAISWSGGSTYYADSVKGRFTISRDNAKNTVYLQMNSLKPEDTAVYYCAADSAFYTGSYYGWSDYDYWGQGTQVTVSS”, the “polyreactivity (PSR sort gate)” value is recorded as “low polyreactivity”.

The values above are taken from the nanobody polyreactivity screen of Harvey et al. (2022).
